In PMC4491694, “New Variants of Tomato Thymidine Kinase 1 Selected for Increased Sensitivity of E. coli KY895 towards Azidothymidine” (Cancers, 2015):

How the values were obtained:
ToTK1ΔC25 [1] = biological target: T1, ToTK1ΔC25 (Solanum lycopersicum, UniProt Q71F77); test: nucleoside kinase assay, 3H-labelled nucleoside, Michaelis-Menten fit; format: biochemical; details: labelled compound (3H)
T1 construct: last 25 C-terminal residues of the 234-residue protein deleted (residues 210-234, borders derived); GST fusion from pGEX-2T, thrombin-cleaved, recombinant
T1 sequence (Q71F77 1-209): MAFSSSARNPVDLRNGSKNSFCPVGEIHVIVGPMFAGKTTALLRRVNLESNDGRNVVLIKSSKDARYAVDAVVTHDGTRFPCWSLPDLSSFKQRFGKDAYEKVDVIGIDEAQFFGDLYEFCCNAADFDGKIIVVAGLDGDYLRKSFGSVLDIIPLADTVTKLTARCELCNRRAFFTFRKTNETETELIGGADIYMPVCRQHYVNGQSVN
Source text: (§1) nucleoside kinase assay, 3H-labelled nucleoside, Michaelis-Menten fit on ToTK1ΔC25

ToTK1 [2] = biological target: T2, ToTK1 (Solanum lycopersicum, UniProt Q71F77); test: as above; format: biochemical; details: labelled compound (3H)
T2 construct: full length, 234 residues; GST fusion from pGEX-2T, thrombin-cleaved, recombinant
T2 sequence (Q71F77 1-234): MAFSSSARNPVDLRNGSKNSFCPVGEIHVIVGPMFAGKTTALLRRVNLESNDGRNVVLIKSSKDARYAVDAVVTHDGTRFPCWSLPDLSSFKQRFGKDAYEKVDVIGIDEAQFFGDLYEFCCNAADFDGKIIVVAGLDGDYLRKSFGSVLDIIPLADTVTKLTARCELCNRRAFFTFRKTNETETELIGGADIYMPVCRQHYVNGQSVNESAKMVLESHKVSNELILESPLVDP
Source text: (§2) nucleoside kinase assay, 3H-labelled nucleoside, Michaelis-Menten fit on ToTK1

ToTK1 [3] = biological target: T3, ToTK1 (Solanum lycopersicum, UniProt Q71F77, T78A/N123S); test: as above; format: biochemical; details: labelled compound (3H)
T3 construct: full length, 234 residues; GST fusion from pGEX-2T, thrombin-cleaved, recombinant
T3 sequence (Q71F77 1-234 T78A/N123S): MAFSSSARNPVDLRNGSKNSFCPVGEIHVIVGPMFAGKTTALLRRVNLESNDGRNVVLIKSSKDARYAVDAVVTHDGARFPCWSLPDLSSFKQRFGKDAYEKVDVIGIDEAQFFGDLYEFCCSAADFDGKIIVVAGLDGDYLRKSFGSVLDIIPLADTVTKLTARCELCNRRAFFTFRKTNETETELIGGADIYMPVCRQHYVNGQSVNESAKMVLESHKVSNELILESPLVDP
Source text: as §2

ToTK1 [4] = biological target: T4, ToTK1 (Solanum lycopersicum, UniProt Q71F77, N123S/T78A); test: nucleoside kinase assay, 3H-labelled nucleoside substrate; Ki equals IC50; format: biochemical; details: read-out: dThd
T4 construct: full length, 234 residues; GST fusion from pGEX-2T, thrombin-cleaved, recombinant
T4 sequence (Q71F77 1-234 T78A/N123S): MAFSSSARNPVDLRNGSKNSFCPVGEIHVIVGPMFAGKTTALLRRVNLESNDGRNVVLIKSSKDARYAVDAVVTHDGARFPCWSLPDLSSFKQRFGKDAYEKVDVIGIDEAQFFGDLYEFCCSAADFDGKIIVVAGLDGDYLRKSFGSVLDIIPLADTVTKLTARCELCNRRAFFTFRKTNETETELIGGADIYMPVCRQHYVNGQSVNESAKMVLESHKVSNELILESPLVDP
Source text: nucleoside kinase assay, 3H-labelled nucleoside substrate; Ki equals IC50 on ToTK1

ToTK1 [5] = biological target: T2, ToTK1; test: nucleoside kinase assay, 3H-labelled nucleoside substrate; format: biochemical; details: read-out: IC50 dTTP (μM) / dThd
Source text: (§3) nucleoside kinase assay, 3H-labelled nucleoside substrate on ToTK1

ToTK1 [6] = biological target: T4, ToTK1; test: as above; format: biochemical; details: read-out: IC50 dTTP (μM) / dThd
Source text: as §3

ToTK1ΔC25 [7] = biological target: T1, ToTK1ΔC25; test: as above; format: biochemical; details: read-out: IC50 dTTP (μM) / dThd
Source text: nucleoside kinase assay, 3H-labelled nucleoside substrate on ToTK1ΔC25

[8] = substrate: O=c1ccn([C@H]2C[C@H](O)[C@@H](CO)O2)c(=O)[nH]1; test: nucleoside kinase assay, 3H-labelled nucleoside, Michaelis-Menten fit; format: biochemical, Solanum lycopersicum; details: labelled compound (3H)
Source text: as §1

[9] = substrate: Cc1cn([C@H]2C[C@H](O)[C@@H](CO)O2)c(=O)[nH]c1=O; test: as above; format: biochemical, Solanum lycopersicum; details: labelled compound (3H)
Source text: as §2

[10] = substrate: O=c1ccn([C@H]2C[C@H](O)[C@@H](CO)O2)c(=O)[nH]1; test: as above; format: biochemical, Solanum lycopersicum; details: labelled compound (3H); remark: listed apart in the source
Source text: as §2

## Cc1cn([C@H]2C[C@H](N=[N+]=[N-])[C@@H](CO)O2)c(=O)[nH]c1=O [AZT, 3-azido-2,3-dideoxythymidine]
ToTK1ΔC25 [1]
  Km: 2 ± 0.06 µM
ToTK1 [2]
  Km: 1.2 ± 0.04 µM
ToTK1 [3]
  Km: 1.1 ± 0.1 µM

## Cc1cn([C@H]2C[C@H](O)[C@@H](COP(=O)(O)OP(=O)(O)OP(=O)(O)O)O2)c(=O)[nH]c1=O [dTTP]
ToTK1 [4]
  Ki: 55.6 µM
ToTK1 [5]
  IC50: 49.1 ± 1.7 µM
ToTK1 [6]
  IC50: 55.6 ± 5.2 µM
ToTK1ΔC25 [7]
  IC50: 65.2 ± 6 µM

B1: ToTK1ΔC25 (Solanum lycopersicum) (protein)
chain: MAFSSSARNPVDLRNGSKNSFCPVGEIHVIVGPMFAGKTTALLRRVNLESNDGRNVVLIKSSKDARYAVDAVVTHDGTRFPCWSLPDLSSFKQRFGKDAYEKVDVIGIDEAQFFGDLYEFCCNAADFDGKIIVVAGLDGDYLRKSFGSVLDIIPLADTVTKLTARCELCNRRAFFTFRKTNETETELIGGADIYMPVCRQHYVNGQSVN
notes: last 25 C-terminal residues of the 234-residue protein deleted (residues 210-234, borders derived); GST fusion from pGEX-2T, thrombin-cleaved, recombinant
[8]
  Km: 27 ± 3.3 µM
  Vmax: 4 µmol/min/mg
  kcat: 1.54 s⁻¹
  kcat/Km: 57000 M⁻¹ s⁻¹

B2: ToTK1 (Solanum lycopersicum; N123S/T78A) (protein)
chain: MAFSSSARNPVDLRNGSKNSFCPVGEIHVIVGPMFAGKTTALLRRVNLESNDGRNVVLIKSSKDARYAVDAVVTHDGARFPCWSLPDLSSFKQRFGKDAYEKVDVIGIDEAQFFGDLYEFCCSAADFDGKIIVVAGLDGDYLRKSFGSVLDIIPLADTVTKLTARCELCNRRAFFTFRKTNETETELIGGADIYMPVCRQHYVNGQSVNESAKMVLESHKVSNELILESPLVDP
notes: full length, 234 residues; GST fusion from pGEX-2T, thrombin-cleaved, recombinant
[9]
  Km: 1.3 ± 0.36 µM
  Vmax: 1.6 µmol/min/mg
  kcat: 0.69 s⁻¹
  kcat/Km: 531000 M⁻¹ s⁻¹
[10]
  Km: 15 ± 3.3 µM
  Vmax: 1.9 µmol/min/mg
  kcat: 0.82 s⁻¹
  kcat/Km: 54700 M⁻¹ s⁻¹

B3: ToTK1 (Solanum lycopersicum) (protein)
chain: MAFSSSARNPVDLRNGSKNSFCPVGEIHVIVGPMFAGKTTALLRRVNLESNDGRNVVLIKSSKDARYAVDAVVTHDGTRFPCWSLPDLSSFKQRFGKDAYEKVDVIGIDEAQFFGDLYEFCCNAADFDGKIIVVAGLDGDYLRKSFGSVLDIIPLADTVTKLTARCELCNRRAFFTFRKTNETETELIGGADIYMPVCRQHYVNGQSVNESAKMVLESHKVSNELILESPLVDP
notes: as for B2
[10]
  Km: 17 ± 0.5 µM
  Vmax: 3.4 µmol/min/mg
  kcat: 1.47 s⁻¹
  kcat/Km: 86500 M⁻¹ s⁻¹
